From article PMC2783993 (Biotechnology progress, 2009)

Biological target: the molecule itself
Test: LC-MS

B1: bovine hemoglobin β globin chain (natural protein)
chain: not shown
  stoichiometry N: 2
